Sequences and labels used below:
B1: β-annulus-EE peptide (peptide)
peptide: INHVGGTGGAIMAPVAVTRQLVGSEE
notes: 24-residue β-annulus peptide involved in the formation of the dodecahedral internal skeleton of tomato bushy stunt virus (capsid protein); two anionic amino acids (Glu) added at the C-terminal side by design; Self-assembles into the anionic artificial viral capsid; also called 26-residue β-annulus-EE peptide; source: synthetic peptide (Fmoc solid-phase method, purified by reverse-phase HPLC)
B2: TMR-β-annulus-EE peptide (peptide)
peptide: C(TMR‑5‑maleimide)INHVGGTGGAIMAPVAVTRQLVGSEE
notes: Cys added at the N-terminus to carry the TMR dye; 24-residue β-annulus peptide involved in the formation of the dodecahedral internal skeleton of tomato bushy stunt virus (capsid protein); two anionic amino acids (Glu) added at the C-terminal side by design; also called Cys-β-annulus-EE peptide modified with TMR-maleimide; source: synthetic peptide (Fmoc solid-phase method; Michael addition of …)

Where no end group is shown, it is not given here. TMR‑5‑maleimide = tetramethylrhodamine-5-maleimide

Series [1] deals with the molecule itself. Briefly: dynamic light scattering; 90 μM β-annulus-EE peptide and 10 μM TMR-β-annulus-EE peptide co-assembled (molar ratio 9:1) in 10 mM phosphate buffer (pH 7.0) containing 1% DMSO, 25 °C.
The series “β-annulus-EE peptide” concerns the target B1. The description is as above. The following applies: both partners purified.

The values that follow come from paper PMC10651892, “A supramolecular system mimicking the infection process of an enveloped virus through membrane fusion” (Scientific Reports, 2023).

For B1, in series [1], the binding result is “binds”.
Turning to B2, the binding result with β-annulus-EE peptide is “binds”.
